Assay results published in publication PMC6777427, “Large-Scale Molecular Evolutionary Analysis Uncovers a Variety of Polynucleotide Kinase Clp1 Family Proteins in the Three Domains of Life” (Genome Biology and Evolution, 2019).

Test system: T1, Nc1ncnc2c1ncn2[C@@H]1O[C@H](COP(=O)(O)OP(=O)(O)OP(=O)(O)O)[C@@H](O)[C@H]1O
T1 construct: codon-optimised synthetic gene in pET-23b (NdeI/XhoI), C-terminal His6 tag kept, expressed in E. coli BL21(DE3), heat-treated at 60 °C, HisTrap; approx. 27 kDa by SDS-PAGE
Assay: purified protein
Format: biochemical, Thermus scotoductus
Settings: ssRNA oligonucleotide (5'-R20-FAM-3') as co-substrate, 10 mM MgCl2, pH 8.0, 60 °C, ATP 0.1-50 µM

Ts-Clp1 (Thermus scotoductus SA-01)
Km: 2.5 µM
